Measured values published in article PMC8635433 (2021).

T1: CD46, immobilised for SPR (UniProt P15529 35-392)
T1 chain: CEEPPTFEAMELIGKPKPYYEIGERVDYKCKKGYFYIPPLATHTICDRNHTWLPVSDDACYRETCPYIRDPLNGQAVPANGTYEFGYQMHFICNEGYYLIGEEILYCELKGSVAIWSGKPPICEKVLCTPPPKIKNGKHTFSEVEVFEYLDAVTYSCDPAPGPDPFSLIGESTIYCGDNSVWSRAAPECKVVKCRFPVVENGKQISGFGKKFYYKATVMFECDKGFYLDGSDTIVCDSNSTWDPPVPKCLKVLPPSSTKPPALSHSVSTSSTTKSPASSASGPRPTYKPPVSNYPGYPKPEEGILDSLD

T2: coxsackie and adenovirus receptor (CAR), immobilised for SPR (UniProt P78310 20-365)
T2 chain: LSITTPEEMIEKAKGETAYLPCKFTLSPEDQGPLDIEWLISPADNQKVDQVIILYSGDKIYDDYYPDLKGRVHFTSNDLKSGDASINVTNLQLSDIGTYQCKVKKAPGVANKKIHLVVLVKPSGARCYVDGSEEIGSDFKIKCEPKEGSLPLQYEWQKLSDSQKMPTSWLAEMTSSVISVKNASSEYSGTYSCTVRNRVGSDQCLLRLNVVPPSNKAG

B1: HAdV-B35 fiber knob protein (domain or fragment)
chain: FNNGDICIKDSINTLWTGINPPPNCQIVENTNTNDGKLTLVLVKNGGLVNGYVSLVGVSDTVNQMFTQKTANIQLRLYFDSSGNLLTEESDLKIPLKNKSSTATSETVASSKAFMPSTTAYPFNTTTRDSENYIHGICYYMTSYDRSLFPLNISIMLNSRMISSNVAYAIQFEWNLNASESPESNIATLTTSPFFFSYITEDDN
B2: ChAdOx1 fiber knob protein (domain or fragment)
chain: GALTAGNKEDDKLTLWTTPDPSPNCQLLSDRDAKFTLCLTKCGSQILGTVAVAAVTVGSALNPINDTVKSAIVFLRFDSDGVLMSNSSMVGDYWNFREGQTTQSVAYTNAVGFMPNLGAYPKTQSKTPKNSIVSQVYLNGETTMPMTLTITFNGTDEKDTTPVSTYSMTFTWQWTGDYKDKNITFATNSFTFSYMAQE
B3: HAdV-C5 fiber knob protein (domain or fragment)
chain: TGAITVGNKNNDKLTLWTTPAPSPNCRLNAEKDAKLTLVLTKCGSQILATVSVLAVKGSLAPISGTVQSAHLIIRFDENGVLLNNSFLDPEYWNFRNGDLTEGTAYTNAVGFMPNLSAYPKSHGKTAKSNIVSQVYLNGDKTKPVTLTITLNGTQETGDTTPSAYSMSFSWDWSGHNYINEIFATSSYTFSYIAQE

How the values were obtained:
Assay in all cases: SPR
[1] = target: T1, CD46, immobilised for SPR
[2] = target: T1, CD46, immobilised for SPR
[3] = target: T2, coxsackie and adenovirus receptor …

| Binder | Kd [1] | koff [2] | koff [3] |
| --- | --- | --- | --- |
| B1 | 4.38 nM | 0.000994 s⁻¹ | – |
| B2 | – | – | 0.00018 s⁻¹ |
| B3 | – | – | 0.000109 s⁻¹ |
